Measured values published in patent US7011951.

Key:
[1] = target: T1, human AcinusS
T1 chain: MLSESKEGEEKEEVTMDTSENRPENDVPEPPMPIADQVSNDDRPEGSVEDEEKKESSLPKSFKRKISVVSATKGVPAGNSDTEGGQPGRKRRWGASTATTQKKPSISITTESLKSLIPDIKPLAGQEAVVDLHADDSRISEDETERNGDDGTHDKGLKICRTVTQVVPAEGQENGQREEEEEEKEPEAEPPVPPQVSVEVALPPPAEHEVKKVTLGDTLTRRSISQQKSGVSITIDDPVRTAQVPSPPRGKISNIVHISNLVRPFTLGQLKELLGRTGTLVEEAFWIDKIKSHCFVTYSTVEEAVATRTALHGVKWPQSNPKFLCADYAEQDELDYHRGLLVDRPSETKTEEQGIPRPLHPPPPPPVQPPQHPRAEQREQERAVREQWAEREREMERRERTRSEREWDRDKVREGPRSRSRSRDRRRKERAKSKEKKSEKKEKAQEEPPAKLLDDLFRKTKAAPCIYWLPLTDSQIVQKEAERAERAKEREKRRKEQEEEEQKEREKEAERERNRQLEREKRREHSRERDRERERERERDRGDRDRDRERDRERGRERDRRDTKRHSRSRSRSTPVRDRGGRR

[2] = target: T2, AcinusS (D/A) resulting from substitution of Asp^1093 with Ala
T2 chain: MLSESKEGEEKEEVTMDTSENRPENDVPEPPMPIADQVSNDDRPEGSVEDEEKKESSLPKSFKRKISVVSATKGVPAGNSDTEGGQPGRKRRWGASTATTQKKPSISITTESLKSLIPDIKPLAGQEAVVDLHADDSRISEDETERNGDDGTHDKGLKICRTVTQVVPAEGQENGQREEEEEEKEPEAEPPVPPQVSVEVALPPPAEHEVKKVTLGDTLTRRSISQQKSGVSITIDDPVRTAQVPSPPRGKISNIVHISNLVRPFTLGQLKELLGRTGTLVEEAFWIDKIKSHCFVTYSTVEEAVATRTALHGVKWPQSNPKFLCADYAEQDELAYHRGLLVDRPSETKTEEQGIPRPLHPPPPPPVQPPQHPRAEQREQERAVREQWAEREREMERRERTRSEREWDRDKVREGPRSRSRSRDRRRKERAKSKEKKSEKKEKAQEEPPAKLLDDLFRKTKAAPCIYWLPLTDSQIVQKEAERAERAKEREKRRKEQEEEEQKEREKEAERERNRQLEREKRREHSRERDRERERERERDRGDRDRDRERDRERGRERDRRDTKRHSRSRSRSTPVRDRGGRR

B1: recombinant active human caspase-3 (protein)
chain: SGISLDNSYKMDYPEMGLCIIINNKNFHKSTGMTSRSGTDVDAANLRETFRNLKYEVRNKNDLTREEIVELMRDVSKEDHSKRSSFVCVLLSHGEEGIIFGTNGPVDLKKITNFFRGDRCRSLTGKPKLFIIQACRGTELDCGIETDSGVDDDMACHKIPVEADFLYAYSTAPGYYSWRNSKDGSWFIQSLCAMLKQYADKLEFMHILTRVNRKVATEFESFSFDATFHAKKQIPCIVSMLTKELYFYH
cleavage of AcinusS by caspase-3 (SDS-PAGE, immunoblot; microsequencing of the cleavage product) [1]: human AcinusS was actually cleaved with caspase-3 in vivo, and the cleavage site was determined to be the Asp^1093 of DELD^1093 | in vitro cleavage by caspase-3 (SDS-PAGE, immunoblot) [2]: a mutation of substituting Asp^1093 with Ala (D/A) abolished the in vitro cleavage of Acinus by caspase-3
